The test system of the data set is Escherichia coli TOP10. Kind of data set: shrunken log2 fold change of peptide-encoding DNA abundance (4.5 h post-induction vs induction); higher = less antimicrobial activity (less host growth inhibition). Conditions: time post-induction: 4.5 h; library: site-saturation at positions 5, 18, 19, 20.
In the case of RRIRTRPPRLPRPRPRPGPWPRP, the “shrunken log2 fold change” value was 0.215. Then RRIRIRPPRLPRPRPRPTNYPRP, with -0.745; and RRIRARPPRLPRPRPRPWQIPRP, with -0.0641; and RRIRTRPPRLPRPRPRPREYPRP, with -0.00842. Then RRIRYRPPRLPRPRPRPDWGPRP, with -0.0597; and RRIRTRPPRLPRPRPRPGRWPRP, with 0.393. Then RRIRKRPPRLPRPRPRPLCGPRP, with 0.367; and RRIRGRPPRLPRPRPRPFGPPRP, with 0.355.

For the sequence RRIRTRPPRLPRPRPRPPHSPRP, the “shrunken log2 fold change” value was -0.141. Then RRIRERPPRLPRPRPRPCQLPRP, with -0.265; and RRIRGRPPRLPRPRPRPHDKPRP, with 0.475; and RRIRIRPPRLPRPRPRPEPWPRP, with 0.39.

For the sequence RRIRTRPPRLPRPRPRPQNQPRP, the “shrunken log2 fold change” value was -0.584. Take RRIRGRPPRLPRPRPRPPQFPRP: the “shrunken log2 fold change” value was determined as 0.676. In the case of RRIRWRPPRLPRPRPRPNAHPRP, the “shrunken log2 fold change” value is 0.0415. Then RRIRIRPPRLPRPRPRPRAWPRP, with 0.187; and RRIRNRPPRLPRPRPRPYLYPRP, with -0.317. Then RRIRMRPPRLPRPRPRPFHIPRP, with -0.269; and RRIRIRPPRLPRPRPRPMINPRP, with -0.714; and RRIRERPPRLPRPRPRPDTRPRP, with 0.0127. The result for RRIRMRPPRLPRPRPRPTVFPRP reads 0.498; that for RRIRHRPPRLPRPRPRPAFLPRP, 0.305; that for RRIRHRPPRLPRPRPRPYCSPRP, -0.337. For the sequence RRIRLRPPRLPRPRPRPYVNPRP, the “shrunken log2 fold change” value was -0.23. The result for RRIRARPPRLPRPRPRPPLAPRP reads 0.861; that for RRIRERPPRLPRPRPRPHKWPRP, -0.0895. Then RRIRWRPPRLPRPRPRPGPYPRP, with -0.161; and RRIRDRPPRLPRPRPRPLNRPRP, with -0.0679; and RRIRLRPPRLPRPRPRPDGHPRP, with 0.0499. The result for RRIRWRPPRLPRPRPRPHLLPRP reads -0.66. Take RRIRCRPPRLPRPRPRPLNNPRP: the “shrunken log2 fold change” value is -0.694. Then RRIRNRPPRLPRPRPRPRGDPRP, with 0.131; and RRIRIRPPRLPRPRPRPYLSPRP, with -0.0357. The result for RRIRIRPPRLPRPRPRPYCKPRP reads -0.592; that for RRIRQRPPRLPRPRPRPQGWPRP, -0.151. Then RRIRERPPRLPRPRPRPMDLPRP, with -0.199; and RRIRSRPPRLPRPRPRPNESPRP, with -0.153; and RRIRTRPPRLPRPRPRPGKDPRP, with 0.0234.

In the case of RRIRHRPPRLPRPRPRPSYVPRP, the “shrunken log2 fold change” value is -1.15. Then RRIRYRPPRLPRPRPRPSHKPRP, with -1.57; and RRIRIRPPRLPRPRPRPEIKPRP, with -0.14; and RRIRTRPPRLPRPRPRPQHYPRP, with -0.691. The result for RRIRPRPPRLPRPRPRPWDLPRP reads -0.0362.

For the sequence RRIRGRPPRLPRPRPRPDWCPRP, the “shrunken log2 fold change” value worked out at 1.37. Then RRIRWRPPRLPRPRPRPLCLPRP, with 0.949.

On to RRIRYRPPRLPRPRPRPMQCPRP, for which the “shrunken log2 fold change” value is -0.00134. Then RRIRVRPPRLPRPRPRPQSYPRP, with -0.461.

As for RRIRLRPPRLPRPRPRPMEQPRP, the “shrunken log2 fold change” value turned out to be 0.168. With RRIRWRPPRLPRPRPRPKDHPRP, the “shrunken log2 fold change” value amounted to 0.182. Then RRIRRRPPRLPRPRPRPAHAPRP, with 0.407; and RRIRSRPPRLPRPRPRPIMYPRP, with -0.42. RRIRTRPPRLPRPRPRPPSYPRP: the “shrunken log2 fold change” value was -0.0622. The result for RRIRCRPPRLPRPRPRPCRCPRP reads -0.389; that for RRIRWRPPRLPRPRPRPSDTPRP, 0.0558. Then RRIRRRPPRLPRPRPRPIAEPRP, with 0.446; and RRIRCRPPRLPRPRPRPHSRPRP, with 0.0572; and RRIRQRPPRLPRPRPRPKCRPRP, with -0.0264. Then RRIRNRPPRLPRPRPRPGSRPRP, with -0.0159; and RRIRQRPPRLPRPRPRPNNMPRP, with -0.378. As to RRIRHRPPRLPRPRPRPFNEPRP, the “shrunken log2 fold change” value is -0.64.

On to RRIRQRPPRLPRPRPRPEVTPRP, for which the “shrunken log2 fold change” value is -0.0614. The result for RRIRFRPPRLPRPRPRPFFHPRP reads -0.18; that for RRIRCRPPRLPRPRPRPELLPRP, -0.0954. As for RRIRYRPPRLPRPRPRPIFSPRP, the “shrunken log2 fold change” value is -1.43. Then RRIRYRPPRLPRPRPRPDEAPRP, with 0.033; and RRIRGRPPRLPRPRPRPMDAPRP, with 0.322. In the case of RRIRVRPPRLPRPRPRPFIHPRP, the “shrunken log2 fold change” value was -0.104.

Consider RRIRRRPPRLPRPRPRPRLSPRP, for which the “shrunken log2 fold change” value was -0.0979. The result for RRIRWRPPRLPRPRPRPKHFPRP reads -0.0487. Then RRIRSRPPRLPRPRPRPKTPPRP, with 0.405. The result for RRIRQRPPRLPRPRPRPYRAPRP reads -0.0946; that for RRIRGRPPRLPRPRPRPKWCPRP, 0.113; that for RRIRFRPPRLPRPRPRPGCFPRP, 0.0214. In the case of RRIRGRPPRLPRPRPRPKCWPRP, the “shrunken log2 fold change” value came out at 1.09.

On to RRIRARPPRLPRPRPRPSWYPRP, for which the “shrunken log2 fold change” value was -0.25.

Regarding RRIRLRPPRLPRPRPRPIFYPRP, the “shrunken log2 fold change” value was -0.223. The result for RRIRMRPPRLPRPRPRPHEHPRP reads 0.301; that for RRIRLRPPRLPRPRPRPRAPPRP, 0.71; that for RRIRDRPPRLPRPRPRPYCRPRP, 0.0533. The result for RRIRCRPPRLPRPRPRPTVIPRP reads -0.907; that for RRIRHRPPRLPRPRPRPNPEPRP, -0.00699; that for RRIRIRPPRLPRPRPRPTEVPRP, 0.232. Then RRIRLRPPRLPRPRPRPHHMPRP, with -0.353.

As to RRIRIRPPRLPRPRPRPKKGPRP, the “shrunken log2 fold change” value is -0.252. The result for RRIRCRPPRLPRPRPRPKSHPRP reads -0.117; that for RRIRLRPPRLPRPRPRPPCIPRP, -0.519; that for RRIRLRPPRLPRPRPRPSIDPRP, -0.191. Then RRIRFRPPRLPRPRPRPVDPPRP, with -0.228; and RRIRGRPPRLPRPRPRPSKKPRP, with 0.609; and RRIRHRPPRLPRPRPRPATHPRP, with -0.105. The result for RRIRKRPPRLPRPRPRPPSSPRP reads 0.263; that for RRIRYRPPRLPRPRPRPSLYPRP, -1; that for RRIRNRPPRLPRPRPRPRWPPRP, 0.286. Take RRIRCRPPRLPRPRPRPHEWPRP: the “shrunken log2 fold change” value stood at 0.00702.

RRIRIRPPRLPRPRPRPYCGPRP: the “shrunken log2 fold change” value is -0.179. Then RRIRRRPPRLPRPRPRPQRMPRP, with 0.13. The result for RRIRTRPPRLPRPRPRPEMQPRP reads -0.00136; that for RRIRNRPPRLPRPRPRPQWYPRP, -0.209; that for RRIRFRPPRLPRPRPRPDVMPRP, -0.0908. The result for RRIRYRPPRLPRPRPRPEQGPRP reads -0.00197; that for RRIRMRPPRLPRPRPRPRDVPRP, 0.372. Regarding RRIRWRPPRLPRPRPRPEQPPRP, the “shrunken log2 fold change” value turned out to be 0.157. The result for RRIRTRPPRLPRPRPRPLYDPRP reads -0.824. The result for RRIRKRPPRLPRPRPRPEDPPRP reads 2.99; that for RRIRFRPPRLPRPRPRPMDHPRP, -0.131. The result for RRIRMRPPRLPRPRPRPGHDPRP reads 0.0618; that for RRIRARPPRLPRPRPRPYHNPRP, -1.16; that for RRIRFRPPRLPRPRPRPWIFPRP, -0.00568. For RRIRRRPPRLPRPRPRPGMEPRP, the “shrunken log2 fold change” value was found to be 0.0306. Then RRIRPRPPRLPRPRPRPGNGPRP, with 0.349; and RRIRLRPPRLPRPRPRPMDNPRP, with -1.1; and RRIRWRPPRLPRPRPRPMMTPRP, with 0.0544. Take RRIRERPPRLPRPRPRPYYGPRP: the “shrunken log2 fold change” value is -0.127.

In the case of RRIRCRPPRLPRPRPRPSREPRP, the “shrunken log2 fold change” value was -0.184. Regarding RRIRGRPPRLPRPRPRPHPNPRP, the “shrunken log2 fold change” value was determined as 0.547. Then RRIRKRPPRLPRPRPRPIQVPRP, with -0.137; and RRIRIRPPRLPRPRPRPTIYPRP, with -0.865. For RRIRWRPPRLPRPRPRPNPDPRP, the “shrunken log2 fold change” value came to 0.167. The result for RRIRVRPPRLPRPRPRPGCFPRP reads 0.15. Consider RRIRYRPPRLPRPRPRPHLQPRP, for which the “shrunken log2 fold change” value is -0.388.

For RRIRFRPPRLPRPRPRPDQWPRP, the “shrunken log2 fold change” value was -0.125. Then RRIRIRPPRLPRPRPRPQRDPRP, with 0.0634.

On to RRIRWRPPRLPRPRPRPGYLPRP, for which the “shrunken log2 fold change” value was 0.0065. Then RRIRARPPRLPRPRPRPIQDPRP, with 0.0826; and RRIRWRPPRLPRPRPRPWTTPRP, with -0.148.

The values are drawn from the supplement of paper PMC9112550, “Optimization of the antimicrobial peptide Bac7 by deep mutational scanning” (BMC Biology, 2022).
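Further: peptides expressed intracellularly from a pBAD plasmid library in pooled LB shake-flask culture, induced with 0.3% L-arabinose, DNA abundance read by NGS, three biological replicates, DESeq2 with apeglm shrinkage.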
